Experimental data taken from US12514920B1, “Respiratory syncytial virus mRNA vaccine, and preparation method therefor and use thereof” (Hangzhou Tianlong Pharmaceutical Co., Ltd., priority 2024, dated 2026).
Residue numbers refer to the chain shown, from its start.

Columns and labels:
RSV F antibody (11A9) = assay: ELISA binding of RSV F antigen mutants, epitope II; details: for Binding amount to antibody/binding amount of PC-RSV-064 to antibody, Epitope II: antibody 11A9, relative to PC-RSV-064
Experimental: (§1) To investigate the binding of the RSV F antigen mutants to antibodies recognizing different epitopes, the binding amount was determined by an ELISA method in this example.
(§2) • 293T cells (purchased from ATCC cell bank); • Primary antibody: RSV pre-F antibody (3C12), epitope ([…] (Novoprotein, Cat. No.: DA101); • RSV pre-F antibody (7H11), epitope Quaternary (Novoprotein, Cat. No.: DA109); • RSV F antibody (11A9), epitope II (Novoprotein, Cat. No.: DA091); • RSV F antibody (4B9), epitope III (Novoprotein, Cat. No.: DA110); • RSV pre-F antibody (7E11), epitope V (Cat. No.: DA119); • Standard: RSV-pre-F trimer protein (Novoprotein, Cat. No.: DRA230); • Secondary antibody: peroxidase AffiniPure goat anti-human IgG (H+L) (Yeasen, Cat. No.: N/A); • Experimental group: mRNA vaccines after screening in Example 5;
(§3) Cell culture and transfection, and protein sample preparation: the experimental procedures were the same as in Example 3.
(§4) Detection of antigen expression by ELISA: the experimental procedures were the same as in Example 5.
(§5) In the present application, the binding of different mutant antigens to antibodies recognizing different epitopes was detected by ELISA, and the strength of the binding of the antigens to the antibodies was measured by the binding amount. (1) The RSV pre-F antibody (3C12) recognizing the epitope Φ binds only to the F protein in the pre-fusion conformation; (2) the RSV pre-F antibody (7H11) recognizes the epitope Quaternary (spanning both epitopes IV and V) and specifically binds to the F protein in the pre-fusion conformation; (3) the RSV F antibody (11A9) recognizing the epitope II can recognize both the pre-fusion and post-fusion conformations of the F protein; (4) the RSV F antibody […] recognizing the epitope III preferentially recognizes the pre-fusion conformation and has relatively weak binding activity for the post-fusion conformation; (5) the RSV pre-F antibody (7E11) recognizing the epitope V binds only to the F protein in the pre-fusion conformation.

[1] = system: RSV pre-F antibody (3C12); assay: ELISA binding of RSV F antigen mutants, epitope Φ; details: for Binding amount to antibody/binding amount of PC-RSV-064 to antibody, Epitope Φ: antibody 3C12, relative to PC-RSV-064
Experimental: as §1, §2, §3, §4, §5

[2] = system: RSV pre-F antibody (7H11); assay: ELISA binding of RSV F antigen mutants, epitope Quaternary; details: for Binding amount to antibody/binding amount of PC-RSV-064 to antibody, Epitope Quaternary: antibody 7H11, relative to PC-RSV-064
Experimental: as §1, §2, §3, §4, §5

[3] = system: RSV pre-F antibody (3C12); assay type: physicochemical; details: for stability under the stress tests (in words): all stress tests, binding to 3C12, ELISA; for Stress resistance parameter, Osmotic pressure (mM) 3000: high osmotic pressure 3000 mM; for Stress resistance parameter, Osmotic pressure (mM) 3000 / Stress resistance parameter, Osmotic pressure (mM) 10: room temperature; for Stress resistance parameter, Osmotic pressure (mM) 3000 / Stress resistance parameter, Osmotic pressure (mM) 10 / Stress resistance parameter, pH 3.5 / Stress resistance parameter, pH 10: 60 min; for Stress resistance parameter, Osmotic pressure (mM) 3000 / Stress resistance parameter, Temperature (° C.) 50 / Stress resistance parameter, Osmotic pressure (mM) 10 / Stress resistance parameter, pH 3.5 / Stress resistance parameter, pH 10 / Stress resistance parameter, Temperature (° C.) 4: ELISA binding to 3C12; for Stress resistance parameter, Temperature (° C.) 50: incubation at 50° C. for 60 min; for Stress resistance parameter, Osmotic pressure (mM) 10: low osmotic pressure 10 mM; for Stress resistance parameter, pH 3.5: pH 3.5, room temperature; for Stress resistance parameter, pH 10: pH 10, room temperature; for Stress resistance parameter, Temperature (° C.) 4: storage at 4° C. for one week
Method in brief: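 RSV F mRNA-vaccine mutants stress-treated: 4° C. for one week, 50° C. for 60 min, low or high osmotic pressure at room temperature for 60 min, acid or base at room temperature for 60 min. Binding to 3C12 (epitope Φ) then measured by ELISA against pre-F trimer standard, HRP anti-human IgG, OD 450/630 nm.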

B1: YK-RSV-050 (protein)
chain: QNITEEFYQSTCSAVSKGYLGALRTGWYTSVITIELSNIKENKCNGTDAKVKLIKQELDKYKNAVTDLQLLMQSTPATGSGSFLGFCLGVGSAIASGVAVSKVLHLEGEVNKIKSALLSTNKAVVSLSNGVSVLTFKVLDLKNYIDKQLLPILNKQSCSIPNIETVIEFQQKNNRLLEITREFSVNAGVTTPVSTYMLTNSELLSLINDMPITNDQKKLMSNNVQIVRQQSYSIMSIIKEEVLAYVVQLPLYGVIDTPCWKLHTSPLCTTNTKEGSNICLTRTDRGWYCDNAGSVSFFPQAETCKVQSNRVFCDTMCSRTLPSEVNLCNVDIFNPKYDCKIMTSKTDVSSSVITSLGAIVSCYGKTKCTASNKNRGIIKTFSNGCDYVSNKGVDTVSVGNTLYYVNKQEGQSLYVKGEPIINFYDPLVFPSDEFDASISQVNEKINQSLAFIRKSDELLHNVNAGKSTTNIMITTIIIVIIVILLSLIAVGLLLY
- ELISA binding amount, Epitope II, RSV F antibody (11A9) (RSV F antibody (11A9)): 2474 ng/mL
- Binding amount to antibody/binding amount of PC-RSV-064 to antibody, Epitope II (RSV F antibody (11A9)): 1.18
- binding of epitope Φ, epitope Quaternary and epitope V to the corresponding antibodies (in words) ([1]; ELISA, antibodies 3C12, 7H11, 7E11): able to well bind
- ELISA binding amount, Epitope Φ, RSV pre-F antibody (3C12) [1]: 3068 ng/mL
- Binding amount to antibody/binding amount of PC-RSV-064 to antibody, Epitope Φ [1]: 1.11
- ELISA binding amount, Epitope Quaternary, RSV pre-F antibody (7H11) [2]: 3722 ng/mL
- Binding amount to antibody/binding amount of PC-RSV-064 to antibody, Epitope Quaternary [2]: 1.03
- stability under the stress tests (in words) [3]: superior stability
- Stress resistance parameter, Osmotic pressure (mM) 3000 [3]: 0.66 ± 0.15
- Stress resistance parameter, Temperature (° C.) 50 [3]: 0.69 ± 0.15
- Stress resistance parameter, Osmotic pressure (mM) 10 [3]: 0.87 ± 0.19
- Stress resistance parameter, pH 3.5 [3]: 1.23 ± 0.27
- Stress resistance parameter, pH 10 [3]: 1.16 ± 0.37
- Stress resistance parameter, Temperature (° C.) 4 [3]: 0.46 ± 0.07

B2: YK-RSV-055 (protein)
chain: QNITEEFYQSTCSAVSKGYLGALRTGWYTSVITIELSNIKENKCNGTDAKVKLIKQELDKYKNAVTDLQLLMQSTPATGSGSCIASGVAVSKVLHLEGEVNKIKSALLSTNKAVVSLSNGVSVLTFKVLDLKNYIDKQLLPILNKQSCSIPNIETVIEFQQKNNRLLEITREFSVNAGVTTPVSTYMLTNSELLSLINDMPITNDQKKLMSNNVQIVRQQSYSIMSICKEEVLAYVVQLPLYGVIDTPCWKLHTSPLCTTNTKEGSNICLTRTDRGWYCDNAGSVSFFPQAETCKVQSNRVFCDTMNSRTLPSEVNLCNVDIFNPKYDCKIMTSKTDVSSSVITSLGAIVSCYGKTKCTASNKNRGIIKTFSNGCDYVSNKGVDTVSVGNTLYYVNKQEGQSLYVKGEPIINFYDPLVFPSDEFDASISQVNEKINQSLAFIRKSDELLHNVNAGKSTTNIMITTIIIVIIVILLSLIAVGLLLY
- ELISA binding amount, Epitope II, RSV F antibody (11A9) (RSV F antibody (11A9)): 3856 ng/mL
- Binding amount to antibody/binding amount of PC-RSV-064 to antibody, Epitope II (RSV F antibody (11A9)): 1.84
- ELISA binding amount, Epitope Φ, RSV pre-F antibody (3C12) [1]: 8589 ng/mL
- Binding amount to antibody/binding amount of PC-RSV-064 to antibody, Epitope Φ [1]: 3.10
- ELISA binding amount, Epitope Quaternary, RSV pre-F antibody (7H11) [2]: 4317 ng/mL
- Binding amount to antibody/binding amount of PC-RSV-064 to antibody, Epitope Quaternary [2]: 1.20
- stability under the stress tests (in words) [3]: superior stability
- Stress resistance parameter, Osmotic pressure (mM) 3000 [3]: 0.71 ± 0.23
- Stress resistance parameter, Temperature (° C.) 50 [3]: 0.78 ± 0.19
- Stress resistance parameter, Osmotic pressure (mM) 10 [3]: 0.72 ± 0.20
- Stress resistance parameter, pH 3.5 [3]: 0.69 ± 0.08
- Stress resistance parameter, pH 10 [3]: 0.79 ± 0.26
- Stress resistance parameter, Temperature (° C.) 4 [3]: 0.48 ± 0.11

B3: YK-RSV-057 (protein)
chain: B2 chain with I227C, C228I
- ELISA binding amount, Epitope II, RSV F antibody (11A9) (RSV F antibody (11A9)): 2823 ng/mL
- Binding amount to antibody/binding amount of PC-RSV-064 to antibody, Epitope II (RSV F antibody (11A9)): 1.34
- ELISA binding amount, Epitope Φ, RSV pre-F antibody (3C12) [1]: 5210 ng/mL
- Binding amount to antibody/binding amount of PC-RSV-064 to antibody, Epitope Φ [1]: 1.88
- ELISA binding amount, Epitope Quaternary, RSV pre-F antibody (7H11) [2]: 6346 ng/mL
- Binding amount to antibody/binding amount of PC-RSV-064 to antibody, Epitope Quaternary [2]: 1.76
- stability under the stress tests (in words) [3]: superior stability
- Stress resistance parameter, Osmotic pressure (mM) 3000 [3]: 0.64 ± 0.15
- Stress resistance parameter, Temperature (° C.) 50 [3]: 0.64 ± 0.17
- Stress resistance parameter, Osmotic pressure (mM) 10 [3]: 0.70 ± 0.07
- Stress resistance parameter, pH 3.5 [3]: 0.56 ± 0.08
- Stress resistance parameter, pH 10 [3]: 0.56 ± 0.09
- Stress resistance parameter, Temperature (° C.) 4 [3]: 0.61 ± 0.10
